Source: paper PMC9274004, “Deciphering the Molecular Interaction Between the Adhesion G Protein-Coupled Receptor ADGRV1 and its PDZ-Containing Regulator PDZD7” (Frontiers in Molecular Biosciences, 2022)
Entries after “also recorded” stand apart in the source; their conditions may differ.

Experiments:
PDZD7 PDZ1ext WT = assay: nanoDSF thermostability of PDZ1ext WT in complex; format: binding, murine; settings: MES pH6 (50 mM), PDZ1ext WT + ADGRV1pbm 756 μM, unbound Tm 61.6°C
Experimental: (§1) NanoDSF experiments were performed on a Prometheus (Nanotemper) spectrometer using Prometheus NT.48 Series nanoDSF Grade High Sensitivity Capillaries. All samples were prepared in MES pH6 (50 mM) at micromolar concentrations. For the complexes, ADGRV1pbm peptide was added at a final concentration of 756 μM, diluting the samples by 5%.

[1] = nanoDSF thermostability of unbound PDZD7 constructs; format: physicochemical; settings: MES pH6 (50 mM), micromolar concentrations, without ligand
Experimental: as §1

PDZD7 PDZ2ext WT = assay: nanoDSF thermostability of PDZ2ext WT in complex; format: binding, murine; settings: MES pH6 (50 mM), PDZ2ext WT + ADGRV1pbm 756 μM, unbound Tm 38.5°C
Experimental: as §1

[2] = Aggregation / sample stability of purified PDZ2 constructs; format: physicochemical
Source text: The biochemical behavior of PDZD7 PDZ2 drastically differs from PDZ1, with or without its C-terminal extension. […] In order to further establish the accessible folding states of the PDZ2 extension, we used the same metadynamics approach as for PDZ1ext and probed its conformational energy landscape (Figure 3C).

ADGRV1 = settings: cellular models, PDZ-PBM dependent; ref Hu et al., 2014; cited from earlier work
Source text: Cochlear hair cells are the primary receptors for the detection of sound-induced vibrations. […] The shape of the bundle is critical for the cohesive deflection of the stereocilia necessary for the cell function. Morphogenesis of the hair bundle is regulated during cochlear development, but the underlying signaling pathways remain elusive. The ankle link protein complex, transiently expressed at the base of the stereocilia, is the main candidate for regulating bundle morphogenesis, with pathogenic varia ... || PDZD7 and ADGRV1 are the main candidate proteins for regulating the signaling associated with the Usher2 complex. PDZD7 is primarily a scaffolding protein, with several protein-protein interaction domains (three PDZ domains and one HHD) likely recruiting several partners at the ankle links anchoring sites ([Du et al., 2018]).

ADGRV1 β subunit = assay: Pull-down of ADGRV1 β subunit by full-length PDZD7-GFP from HeLa cell lysates; format: binding, murine; settings: PDZD7-GFP bait, anti-GFP beads, 4°C 1 h, western blot, vs no bait
Experimental: HeLa cells were maintained in Dulbecco’s modified Eagle’s medium (DMEM) containing 10% fetal calf serum (FCS). PDZD7 constructs correspond to the full-length murine sequence in fusion with a N-terminal strep tag and a C-terminal GFP, wild-type or carrying G103R/G228R variants, cloned in a PMT3 vector. The ADGRV1 construct corresponds to the murine β subunit of the receptor (5884-6298) cloned in a pRK5 vector. Plasmids were transfected in separate HeLa cultures using 25 μg (PDZD7) and 10 μg (ADGRV1) of DNA per 10 cm dish using TurboFect™ Transfection Reagent (ThermoFisher Scientific) at 3 μl per μg of transfected DNA. Mixes were prepared in volumes of 1 ml/plate (in DMEM), vortexed and incubated up to 30 min at room temperature, cell media were renewed before transfection. After drop by drop addition of the transfection mix, cells were maintained at 37°C for 14 h for protein expression. Cells were dissociated using Gibco™ Trypsine-EDTA (0,05%), subsequently inactivated by addition of DMEM containing 10% FCS. Cells were counted, pelleted and resuspended at similar concentrations in PBS Tween 0.01%, Dodécyl-β-D-maltoside (DDM) 0.1% containing anti-proteases (buffer). Benzonase (Sigma) was added before sonication of the cells (40 mA amplitude, 10 pulses of 12 s with 18 s intervals, in ice). An identical volume of ADGRV1 β transfected cell lysate was mixed to either PDZD7 WT, G103R or G228R transfected cell lysates. PDZ proteins have different expression levels, meaning that different amounts of sample are needed to saturate the dynabeads with the PDZ proteins. Pull down experiments have been performed several times allowing us to estimate the yield of expression of each PDZ construct for a given amount of cells. […] Target proteins were detected using mouse α-GFP (LivingColors™ JL-8, Takara) and rabbit α-ADGRV1 (custom, raised against the cytoplasmic domain) antibodies (1/2000 in 5% milk TBST), as well as secondary α-mouse and α-rabbit IgG antibodies coupled to HRP (1/2000 in 5% milk TBST). […]

PDZD7 P1P2 WT = assay: nanoDSF thermostability of P1P2 WT in complex; format: binding, murine; settings: MES pH6 (50 mM), P1P2 WT + ADGRV1pbm 756 μM, unbound Tm 41°C
Experimental: as §1

[3] = Analytical UltraCentrifugation of unbound P1P2; format: physicochemical; settings: AUC, 10°C, P1P2 0.4 mg/ml, Phosphate Buffer pH 6.5 (50 mM)
Experimental: AUC experiments were performed at 10°C using an analytical Beckman Coulter Optima ultracentrifuge equipped with a AN50-Ti rotor. The P1P2 sample was prepared at 0.4 mg/ml in Phosphate Buffer pH 6.5 (50 mM). For the complex, 10 μl of pH-adjusted ADGRV1pbm peptide (13,7 mM) were added to 300 μl of P1P2 sample. Interference profiles were analyzed with SEDFIT.

[4] = SAXS geometrical parameters of unbound PDZ tandem; format: physicochemical; settings: without ligand, Phosphate Buffer 50 mM pH 6.5, NaCl 300 mM, TCEP 0.5 mM
Experimental: X-ray scattering data were collected at the SWING beamline at Soleil Synchrotron (Saclay, France). 50 μl of sample are injected on a Superdex-75 5/150 GL size exclusion column in-line with the SAXS measuring cell. PDZD7 samples are prepared in the same buffer (Phosphate Buffer 50 mM pH 6.5, NaCl 300 mM, TCEP 0.5 mM, anti-proteases). The experiment is performed at initial concentrations of 119 μM (3.1 mg/ml) for P1P2 WT and 108 μM (2.8 mg/ml) for P1P2 G103R. For complexes, 2 μl of pH-adjusted ADGRV1pbm peptide (VELRRIPIADTHL-COOH; 13,7 mM) are added to the 50 μl from the sample 1 hour before recording. Initial data processing was performed using sxCuBE, FOXTROT and PRIMUS. The radii of gyration were evaluated using Guinier approximation. The Dmax was determined from the distance distribution function P(r) obtained with the program GNOM.

B1: PDZ1ext WT: first PDZ of mouse PDZD7 with its C-terminal extension (A81 to E192) (protein, UniProt E9Q9W7 81-192, looked up, fragment)
chain: SDIIHAVRVEKSPSGRLGFSVRGGSEHGLGIFVSKVEEGSSAERAGLCVGDKITEVNGLSLESTTMGSAVRLLTSSSCLHMMVRRMGRVPGIKFSKEKTTWVDVVNRRLVVE
- Tm (Bound) (PDZD7 PDZ1ext WT): 61.8 °C
- Tm (Unbound) [1]: 61.6 °C

B2: PDZ2ext WT: second PDZ of mouse PDZD7 with its C-terminal extension (G206 to G313) (protein)
chain: GVRRIVHLYTTSDDFCLGFNIRGGKEFGLGIYVSKVDHGGLAEENGIKVGDQVLAANGVRFDDISHSQAVEVLKGQTHIMLTIKETGRYPAYKEMVSEYCWLDRLSNG
modifications: left off: GST, N-terminal, cleaved
- Tm (Bound) (PDZD7 PDZ2ext WT): 47.2 °C
- Tm (Unbound) [1]: 38.5 °C
- sample stability ([2]; 15N-labelled PDZ2 constructs, NMR): stable for a few hours only
- aggregation ([2]; at temperatures higher than 15 °C, despite extensive screening of buffer conditions): Rapid aggregation

B3: WT PDZD7: full-length murine PDZD7 in fusion with N-terminal strep tag and C-terminal GFP (pull-down) (protein)
chain: MARGFTVGFDPLGLGELSSGSLSSVSSRGHLGSDSGSTATRYLLRKQQRLLNGPSRGIRASSPMGRVILINSPIEANSDESDIIHAVRVEKSPSGRLGFSVRGGSEHGLGIFVSKVEEGSSAERAGLCVGDKITEVNGLSLESTTMGSAVRLLTSSSCLHMMVRRMGRVPGIKFSKEKTTWVDVVNRRLVVEKCSSTPSDRSSEDGVRRIVHLYTTSDDFCLGFNIRGGKEFGLGIYVSKVDHGGLAEENGIKVGDQVLAANGVRFDDISHSQAVEVLKGQTHIMLTIKETGRYPAYKEMVSEYCWLDRLSNGVLQQLSPASESSSSVSSYASSAPCSSGSLPSDRMDVCLGPEEPTSHGPGWGRADTAMQTEPDLDSRVETWCSVRPTVILRDTAIRSDGPSSTRHLDSALSESPKTALLLALSRPRTPITRSQSHLTLWEEKKQRKKEKSGSSGEKGALQRSKTLMNLFFKGGRQGRPAGDGHREAWTLDSRSPTKVRPRLDLEKAGSVGPVQKFVTWRLRRDRERGRALLSARSGSPSGQAPTVNEQVQAWESRRPLIQDLARRLLTDDEVLAVTRHCSRYVHEGGVEDLVRPLLAILDRPTKLLLLRDIRSVVAPTDLGRFDSMVMPVELEAFEALKSRAVGPSALRPTRQDTPPKRHLITPVPDSRGGFYLLPVNSSEDEDGEIREKLGVLKVSLGASAPHHKGIPPLQDVPVDAFSLRRGACAPPPQPPPVAPRPPRPNWLLTEPLSREDTQQNQSQTPAQSCSRSRSRSRSRSHSRGQGKSPGRRRSPSPAPIATAATANGRYHRPRKARPLLPRLLDGQVAKVGARQGPLENGRIAEEAVGNVSTGALRTITLSKMKQSLGISISGGIESKVQPMVKIEKIFPGGAAFLCGDLQAGFELVAVDGESLEQVTHQRAVDTIRRAYRNKAREPMELVVRVPGPGLLPLASDLRVVKDQSLAPDCPSALGPVDDARILTQLPPPEARQLQQSLSSALKVPQSIPKLSPILKDPHDPS
modifications: left off: strep tag, N-terminal, kept | GFP, C-terminal, kept
- effect on ADGRV1 GPCR activity (ADGRV1): downregulates the GPCR activity and restores cAMP levels; also recorded: downregulates ADGRV1 GPCR activity
- binding of ADGRV1 β subunit (pull-down) (ADGRV1 β subunit): a clear band is observed

B4: P1P2 WT: PDZD7 PDZ tandem (P1P2 construct; A81 to G313) (protein, UniProt E9Q9W7 81-313, looked up, fragment)
chain: SDIIHAVRVEKSPSGRLGFSVRGGSEHGLGIFVSKVEEGSSAERAGLCVGDKITEVNGLSLESTTMGSAVRLLTSSSCLHMMVRRMGRVPGIKFSKEKTTWVDVVNRRLVVEKCSSTPSDRSSEDGVRRIVHLYTTSDDFCLGFNIRGGKEFGLGIYVSKVDHGGLAEENGIKVGDQVLAANGVRFDDISHSQAVEVLKGQTHIMLTIKETGRYPAYKEMVSEYCWLDRLSNG
- Tm (Bound) (PDZD7 P1P2 WT): 57.2 °C
- sedimentation coefficient [3]: 1.6 Svedberg (S)
- radius of gyration (Rg) ([4]; Guinier approximation): 27.8 Å
- interatomic maximum distance (Dmax) ([4]; P(r) with GNOM): 109.5 Å
- Tm (Unbound) [1]: 41 °C
